From the supplement of paper PMC7125110 come the findings set out here.

B1: glmS ribozyme (parent)
chain: AUAAAAGCGCCAGAACUACAGAAAUGUAGUUGACGAGGAGGAGGUUUAUCGAAUUUUCGGCGGAUGCCUCCAAA

± gives the standard error. For part of these data: This sample holds only a part of the variants without activity.

What all share (settings): with glucosamine-6-phosphate
Variants of B1 are the subject of data set [1]. Description: kcat; higher = faster cleavage; RNA array. Summed up:
(§1)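 Weighted Michaelis–Menten fits across concentrations supplied kcat and KM, based on kobs from one- or two-exponential decay fits to normalised per-tile medians. The data came from barcoded ribozyme variants transcribed in situ by E. coli RNA polymerase on sequenced MiSeq chips and tracked at 37 °C by a hybridised Cy3 probe. Glucosamine-6-phosphate (40 μM to 10 mM) in HEPES/KCl/Mg(OAc)2 buffer was flowed in.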

Data set [2] covers variants of B1. Description: self-cleavage kobs at 40 uM GlcN6P; higher = faster cleavage; RNA array. Summed up:
as §1

Data set [3] covers variants of B1. In words: self-cleavage kobs at 160 uM GlcN6P; higher = faster cleavage; RNA array. In short, it runs like this: as §1
The variants in data set [4] derive from B1. Description: self-cleavage kobs at 640 uM GlcN6P; higher = faster cleavage; RNA array. In short, it runs like this:
as §1

Data set [5] covers variants of B1. Description: self-cleavage kobs at 2500 uM GlcN6P; higher = faster cleavage; RNA array. In short, it runs like this: as §1
Variants of B1 are the subject of data set [6]. In words: self-cleavage kobs at 10000 uM GlcN6P; higher = faster cleavage; RNA array. In short, it runs like this: as §1
In data set [7] the parent is B1. Description: KM; higher = weaker cofactor use; RNA array. In short, it runs like this:
as §1

For orientation: kcat means the maximal rate divided by the concentration of active sites. As usually defined, the KM is the substrate concentration at which the rate is half of its maximum.

Take A39G C70U C71U: the kcat in data set [1] is 0.000401 ± 9.5e-05 s⁻¹. The “self-cleavage kobs at 40 uM GlcN6P” value in data set [2] was 0.000107 ± 2.7e-05 s⁻¹. For the same variant, the “self-cleavage kobs at 160 uM GlcN6P” value in data set [3] is 0.000403 ± 0.00018 s⁻¹. Moreover, in data set [4], the “self-cleavage kobs at 640 uM GlcN6P” value is 0.000383 ± 8.4e-05 s⁻¹. For the same variant, the “self-cleavage kobs at 2500 uM GlcN6P” value in data set [5] is 0.000283 ± 8.9e-05 s⁻¹. Besides, in data set [6], the “self-cleavage kobs at 10000 uM GlcN6P” value was found to be 0.000785 ± 0.00024 s⁻¹.

Consider A12U A52U, for which the turnover number (kcat) in data set [1] is 0.00174 ± 0.00012 s⁻¹. In addition, in data set [7], the KM was determined as 4090 ± 490 µM. Also, the “self-cleavage kobs at 160 uM GlcN6P” value in data set [3] is 7.11e-05 ± 2e-05 s⁻¹. The “self-cleavage kobs at 640 uM GlcN6P” value in data set [4] is 0.000233 ± 3.8e-05 s⁻¹. Moreover, the “self-cleavage kobs at 2500 uM GlcN6P” value in data set [5] was 0.000681 ± 9.8e-05 s⁻¹. Besides, the “self-cleavage kobs at 10000 uM GlcN6P” value in data set [6] turned out to be 0.00123 ± 0.00011 s⁻¹.

With G37C A53G, in data set [1], the kcat is 3.88e-05 ± 1.1e-05 s⁻¹. Further, the “self-cleavage kobs at 40 uM GlcN6P” value in data set [2] is under 1e-05 s⁻¹. Further, the “self-cleavage kobs at 2500 uM GlcN6P” value in data set [5] came to 5.73e-05 ± 1.6e-05 s⁻¹. Further, the “self-cleavage kobs at 10000 uM GlcN6P” value in data set [6] was 3.11e-05 ± 1.1e-05 s⁻¹.

For A6U A15G U30C, the kcat in data set [1] stood at 0.000345 ± 9.4e-05 s⁻¹. Besides, the “self-cleavage kobs at 640 uM GlcN6P” value in data set [4] came to 5.44e-05 ± 2e-05 s⁻¹. Moreover, the “self-cleavage kobs at 2500 uM GlcN6P” value in data set [5] stood at 0.00023 ± 6.3e-05 s⁻¹. For the same variant, the “self-cleavage kobs at 10000 uM GlcN6P” value in data set [6] is 0.000255 ± 5.8e-05 s⁻¹.

On to U31C U69G, for which the kcat in data set [1] worked out at 3.99e-05 ± 1.4e-05 s⁻¹. In addition, the “self-cleavage kobs at 2500 uM GlcN6P” value in data set [5] came to 5.64e-05 ± 1.6e-05 s⁻¹.

With A15C G40A, the kcat in data set [1] was found to be 0.000642 ± 0.00018 s⁻¹. In addition, the KM in data set [7] was 1860 ± 840 µM. The “self-cleavage kobs at 40 uM GlcN6P” value in data set [2] amounted to 2.42e-05 ± 9.8e-06 s⁻¹. Moreover, the “self-cleavage kobs at 160 uM GlcN6P” value in data set [3] turned out to be 8.81e-05 ± 2.4e-05 s⁻¹. For the same variant, the “self-cleavage kobs at 640 uM GlcN6P” value in data set [4] is 0.000149 ± 2e-05 s⁻¹. The “self-cleavage kobs at 2500 uM GlcN6P” value in data set [5] turned out to be 0.000365 ± 7.3e-05 s⁻¹. Further, the “self-cleavage kobs at 10000 uM GlcN6P” value in data set [6] amounted to 0.000584 ± 0.00012 s⁻¹.

For U47G C50U, in data set [1], the kcat was found to be 3.97e-05 ± 1.6e-06 s⁻¹. The Michaelis constant (KM) in data set [7] is 433 ± 100 µM. Also, the “self-cleavage kobs at 2500 uM GlcN6P” value in data set [5] worked out at 3.64e-05 ± 1.5e-05 s⁻¹. Moreover, the “self-cleavage kobs at 10000 uM GlcN6P” value in data set [6] turned out to be 3.69e-05 ± 1.2e-05 s⁻¹.

For U46G A64C, in data set [1], the catalytic constant (kcat) worked out at 1.9e-05 ± 5.9e-07 s⁻¹. For the same variant, in data set [7], the KM was 227 ± 47 µM. Besides, the “self-cleavage kobs at 40 uM GlcN6P” value in data set [2] is under 1e-05 s⁻¹.

Turning to A53U A64C, the kcat in data set [1] turned out to be 8.67e-05 ± 2.2e-05 s⁻¹. Further, the “self-cleavage kobs at 2500 uM GlcN6P” value in data set [5] worked out at 9.3e-05 ± 1.6e-05 s⁻¹. In addition, the “self-cleavage kobs at 10000 uM GlcN6P” value in data set [6] was 7.17e-05 ± 1.1e-05 s⁻¹.

Regarding A12C G66U C70U, the turnover number (kcat) in data set [1] came to 0.00136 ± 0.00036 s⁻¹. Besides, the KM in data set [7] came out at 1190 ± 570 µM. Moreover, the “self-cleavage kobs at 40 uM GlcN6P” value in data set [2] came out at 3.71e-05 ± 1.5e-05 s⁻¹. Besides, in data set [4], the “self-cleavage kobs at 640 uM GlcN6P” value is 0.000496 ± 0.00012 s⁻¹. Moreover, the “self-cleavage kobs at 2500 uM GlcN6P” value in data set [5] amounted to 0.00128 ± 0.00028 s⁻¹. The “self-cleavage kobs at 10000 uM GlcN6P” value in data set [6] stood at 0.000992 ± 0.00028 s⁻¹.

In the case of A6C C70A, the catalytic constant (kcat) in data set [1] came to 1.39e-05 ± 2.5e-06 s⁻¹.

Turning to A12G G66C, in data set [1], the kcat came out at 8.51e-05 ± 6.1e-06 s⁻¹. For the same variant, the KM in data set [7] came to 857 ± 290 µM. For the same variant, the “self-cleavage kobs at 640 uM GlcN6P” value in data set [4] stood at 4.42e-05 ± 1.9e-05 s⁻¹. Further, the “self-cleavage kobs at 2500 uM GlcN6P” value in data set [5] turned out to be 5.86e-05 ± 1.3e-05 s⁻¹. In addition, the “self-cleavage kobs at 10000 uM GlcN6P” value in data set [6] stood at 8.08e-05 ± 1.3e-05 s⁻¹.

For U46G U65A, the kcat in data set [1] is 0.00378 ± 0.00067 s⁻¹. Also, the KM in data set [7] stood at 2420 ± 650 µM. For the same variant, the “self-cleavage kobs at 40 uM GlcN6P” value in data set [2] turned out to be 8.18e-05 ± 1.7e-05 s⁻¹. In data set [3], the “self-cleavage kobs at 160 uM GlcN6P” value was determined as 0.000198 ± 4.8e-05 s⁻¹. Besides, in data set [4], the “self-cleavage kobs at 640 uM GlcN6P” value is 0.000703 ± 0.00015 s⁻¹. Further, the “self-cleavage kobs at 2500 uM GlcN6P” value in data set [5] came out at 0.00212 ± 0.00033 s⁻¹. For the same variant, the “self-cleavage kobs at 10000 uM GlcN6P” value in data set [6] turned out to be 0.00296 ± 0.00047 s⁻¹.

Regarding A12C G43U, the catalytic constant (kcat) in data set [1] is 5.32e-05 ± 9.5e-07 s⁻¹. In data set [7], the KM is 1200 ± 86 µM. The “self-cleavage kobs at 2500 uM GlcN6P” value in data set [5] was 3.6e-05 ± 8e-06 s⁻¹. Also, the “self-cleavage kobs at 10000 uM GlcN6P” value in data set [6] was determined as 4.74e-05 ± 9.2e-06 s⁻¹.

For A33C U54G, in data set [1], the kcat is 0.00057 ± 0.00014 s⁻¹. Further, in data set [3], the “self-cleavage kobs at 160 uM GlcN6P” value worked out at 8.91e-05 ± 2.6e-05 s⁻¹. The “self-cleavage kobs at 640 uM GlcN6P” value in data set [4] amounted to 8.56e-05 ± 1.7e-05 s⁻¹. Also, in data set [5], the “self-cleavage kobs at 2500 uM GlcN6P” value turned out to be 0.000325 ± 3.8e-05 s⁻¹. Further, the “self-cleavage kobs at 10000 uM GlcN6P” value in data set [6] amounted to 0.00043 ± 4.3e-05 s⁻¹.

For A12G A14U G32U G60A G66U, the kcat in data set [1] was under 1e-05 s⁻¹. In addition, the “self-cleavage kobs at 10000 uM GlcN6P” value in data set [6] was under 1e-05 s⁻¹.

For U31A U55A, the catalytic constant (kcat) in data set [1] was 0.0251 ± 0.0036 s⁻¹. The KM in data set [7] was 3810 ± 790 µM. The “self-cleavage kobs at 160 uM GlcN6P” value in data set [3] was 0.000953 ± 0.00022 s⁻¹. The “self-cleavage kobs at 640 uM GlcN6P” value in data set [4] is 0.00452 ± 0.0014 s⁻¹. In data set [5], the “self-cleavage kobs at 2500 uM GlcN6P” value amounted to 0.00953 ± 0.0034 s⁻¹. Moreover, in data set [6], the “self-cleavage kobs at 10000 uM GlcN6P” value stood at 0.0182 ± 0.0035 s⁻¹.
